Results as given in a protein production outcome set (Wang et al. 2014).

Experiment: label from the status in PepcDB records

Sequence: IDPVMVAAFEGWNDAGDAASTAVAHLDREWKGEVFAALDAEDYYDFQVNRPTVWLDGGVRKITWPTTRLSVVRVGGEKPRDLVLVRGIEPSMRWRSFCNELLAFAHELGVELVVVLGALLGDTPHTRPVPVSGVTSDPDLARTMDLEETKYEGPTGIVGILQEACTHAGVPAVSLWAAVPHYVSQPPNPKATLALLNRLEDLIDVRIPLGELPEDARAWQVGVDQLAAEDSEVAEYVQSLEEARDTA
- protein production: not failed

Sequence: MYIEMAQQQQQSGSDNSMAPVWIVILLFITAYFVWALAHQYIVSFVFTINIWQARLVNLFLNNQLLANQIYLMQTLDPNTVNWDQMVTVMRAVGDYMRYPVICILVVLAFVLYNSNVTLKYRKTYDMKSLRAQEQFNWPAIMPIVKEDLVSQDVNKGPWAMALTPMEFARKYNLLRKDDALLDNPVPGEEMTAGIRRGDAKRVFTMQLGPYWDGFERCSPQAYALSAVFMARMNRDRDAANNILKVLDKTFVDGKPDFSVARPVMKKYQNSELVQEVVAKHAYVLTVIASLLEAAREDGVVPSSEFLWLKPVDRRLWYMLNCVGRQTPYSEVAGPFAHWKAEKEMGRRSLVPMIDEAIRALEIAVKEVRLTPRQMEELEP
- protein production: failed

Sequence: MQVQVSGKHVDVGEALRARVSDEIALSIGKYFDRGGAAEVVVSKEGYAFRVDCSVKLASGQQLISHGSGGDAHAAFDAALAKIDTRIRRYKRRLKSHSAAATAKQVENAAMFVLRAPESDDVDEDWDIEDDHPTGAPAAMVIAETQAAMKTMTVSMAVMELDLTAYPAIVFRNAAHGGISVVYRRPDGNIGWIDPERTKSNGHGSTAS
- protein production: failed

Sequence: MIRSLLLASAACALAFPAAAETVAIVNARLEPVSSPAIPNGTLVIKDGKIAALGASIQVPAGARVIDAKGGVVTPGLIAPSSNLGASEISGVRETRDDGTGSALSAAFDISYGVNPASTFLGLARDGGITGSAVTPVLSGTGGGAHEHADDGVVEEMTAGAHGDGDPPLFGGQAAFIRLKAGSPDIVEARKLAVTVSLGESGARAAGGSRGANLVLLRSALEDARAFASRRAAFEQGATRDFGLSRLDLQALIPVVQGKTPLLIRVSRAADIRQALKFAAEERIKIVLEGVEEGWMVADEIAKAGVPVILDPQDDLPGSFETLGSRLDNAARLHAAGVSVAINGSRDFNNLRQERLNAGLAVAHGLPYPAALAAVTLVPARIWGQADKVGSLEVGKLADVVVWNGDPLETTSWPTAVLIGGVEQPKDGRHEQLKARYAAGDQNGYPPAYR
- protein production: failed

Sequence: MEEGDFFNCCFSEISSGMTMNKKKMKKSNNQKRFSEEQIKSLELIFESETRLEPRKKVQVARELGLQPRQVAIWFQNKRARWKTKQLEKEYNTLRANYNNLASQFEIMKKEKQSLVSELQRLNEEMQRPKEEKHHECCGDQGLALSSSTESHNGKSEPEGRLDQGSVLCNDGDYNNNIKTEYFGFEEETDHELMNIVEKADDSCLTSSENWGGFNSDSLLDQSSSNYPNWWEFWS
- protein production: failed

Sequence: MFHAAFMEERVFSDRGSMRNACSSIEYDGCRQGQSGPLLEEKEVKRKLFGALALVAMLAAPALAEAATRGFATANVNMRSGPSTAYPAVVVIPVGAPLTVHGCLSDTPWCDVSFVNGRGWVAGRYIQTTFRQNRVYVEPRYYRDLGVPVITFEAGRYWDRYYRDRDFYRERDRWRRPPPSGGYWNAPPPSAGWDRPRPRDDWRDGRRDDGRRDEWRDPRQGGPNDGRWERRYGDWNQGDRNQDRPRRDDDRRRWEDENRDRNRDRDSNRDGNRDRPQNQYDGQRGQLEGQPRPPAPAPDAPLQGCIIGSPGCAQRLEHHHHHH
- protein production: not failed

Sequence: MEGSTGFDGDATTFFAPDAVFGDRVRRFQEFLDTFTSYRDSVRSIQVYNSNNAANYNDDQDDADERDLLGDDDGDDLEKEKKAASSTSLNILPHRIIISLDDLREFDRSFWSGILVEPAYFIPPAEKALTDLADSMDDVPHPNASAVSSRHPWKLSFKGSFGAHALSPRTLTAQHLNKLVSVEGIVTKTSLVRPKLIRSVHYAAKTGRFHYRDYTDATTTLTTRIPTPAIYPTEDTEGNKLTTEYGYSTFIDHQRITVQEMPEMAPAGQLPRSIDVILDDDLVDKTKPGDRVNVVGVFKSLGAGGMNQSNSNTLIGFKTLILGNTVYPLHARSTGVAARQMLTDFDIRNINKLSKKKDIFDILSQSLAPSIYGHDHIKKAILLMLMGGVEKNLENGSHLRGDINILMVGDPSTAKSQLLRFVLNTASLAIATTGRGSSGVGLTAAVTTDRETGERRLEAGAMVLADRGVVCIDEFDKMTDVDRVAIHEVMEQQTVTIAKAGIHTTLNARCSVIAAANPVFGQYDVNRDPHQNIALPDSLLSRFDLLFVVTDDINEIRDRSISEHVLRTHRYLPPGYLEGEPVRERLNLSLAVGEDADINPEEHSNSGAGVENEGEDDEDHVFEKFNPLLQAGAKLAKNKGNYNGTEIPKLVTIPFLRKYVQYAKERVIPQLTQEAINVIVKNYTDLRNDDNTKKSPITARTLETLIRLATAHAKVRLSKTVNKVDAKVAANLLRFALLGEDIGNDIDEEESEYEEALSKRSPQKSPKKRQRVRQPASNSGSPIKSTPRRSTASSVNATPSSARRILRFQDDEQNAGEDDNDIMSPLPADEEAELQRRLQLGLRVSPRRREHLHAPEEGSSGPLTEVGTPRLPNVSSAGQDDEQQQSVISFDNVEPGTISTGRLSLISGIIARLMQTEIFEEESYPVASLFERINEELPEEEKFSAQEYLAGLKIMSDRNNLMVADDKVWRV
- protein production: failed

Sequence: MPKSPHKLFKANSFWKENNLILREIKHFRKIAILAVIFSFLAASFEGVSIGFLLSFLQKLTSPNDPIQTGISWVDMILAADAWPIPPIYRISLLILLSTWMRATFNYFGGVYTESAQLNLADRLHKQIFEQLQALRLSYFAQTRSGELINTITTEIERIKQGFSGLAFVLTRIMTVCVYFVVMFSISWQLSIISVLIFLLLAVGLSTLNKRVRETSFGISHANAQFTAVAVEFINGIRTIQAFGTQEFERQRFYKASTNQLNAAIKVVLAWTLVKPIAEGIATTVLISLIVISFATFTLPVASLLTFFFVLVRVIPNIQDINGTVAFLSTLQGSSENIKNILQTNNKPYLKNGKLHFQGLKRSIDLVSVDFGYTADNLVLNNITLTIERGKTTALVGASGAGKTTLADLIPRFYDPTEGQILVDGLDVQYFEINSLRRKMAVVSQDTFIFNTSIRDNIAYGTSGASEAEIREVARLANALQFIEEMPEGFDTKLGDRGVRLSGGQRQRIAIARALLRDPEILILDEATSALDSVSERLIQESIEKLSVGRTVIAIAHRLSTIAKADKVVVMEQGRIVEQGNYQELLEQRGKLWKYHQMQHESGQTNS
- protein production: failed

Sequence: MADSLAGIDQVTSLHKNNELQLLCFRLGKNKDLYAVNVFKIREVVKYHGNLTIISHENNSLVEGLIIIRELTIPLIDMKKWFYYDSQNKNKDLRPYRIEKEKGEDDIVMICEFSRWTIGVRIYEADRILSKKWTEMEQSAGLGGSAGNNKLVSRTRYFDGRLVQVVDIEKMLIDVFPWIEDEKHNDLETLSKIHSNQCVLLADDSPSVLKTMQMILDKLGVKHIDFINGKTLLEHLFNPTTDVSNIGLIITDLEMPEASGFEVIKQVKNNPLTSKIPIVVNSSMSGSSNEDMARSLKADDFISKSNPKDIQRVVKQFLELA
- protein production: failed

Sequence: MADWTRAQSSGAVEEILDRENKRMADSLASKVTRLKSLALDIDRDTEDQNRYLDGMDSDFTSVTGLLTGSVKRFSTVARSGRDNRKLLCGMAVVLIVAFFILSYLLSRTRT
- protein production: failed

Sequence: MKDSVDCPSILPTDRTSVLSETSTLVGSSSHVYSRHAPMNSYHNSMNSNIYHSPKASSPLVSYKTSSPVLLKRATAPVLPSFKPKEQRYNKPQGCSLITAVELGKIIETLPDEKVLLLDVRPFTEHAKSIITNSIHVCLPSTLLRRKNFTFSKLLDNLTPSEQSVLKSKLAIDNLRIIIYDSTANQTESSVSLPCYGIASKLIEFDTNVKKTVSILMCGFPQFKILFPDHINTNTFNSDCISSAEPKSPKTNLMNSLHNTAPHMTATTPLSSPQMNLKLKVPDDSRSDHSNFSSSPSPRNVLSDSPMSSSSPISALFKFQLPAPQTNINQMFKFSQNEEIMGLETYLSAVNIKEEHERWYNNDSAKKSLQNFQFPKNQNSLEKDTNKDKLGFQIRYENLSKNYEKEVIDSVIPEWFQHLMSIPKIELVSQFQKLDFLEKRRLNHSVSFRKKENSFILEKPSSYPEQLTSTSSSTIMPPKFPDVNKVQKRSHSQPIFTQYSKYKSMLSLESDSDSESDDVIISSGVELGAKNRYKDIFPYEHSRVILKKGLQSSKGIKHSHSTSDGGILDNYINANYLSLPRFSVEQNSSFQTTTTTTRRVRYIATQAPMPSTVHDFYTCILNNGVPLVLSLTNDFENGIEKCYRYWQEGNYNGIHVKLLEKKILKMPSTTSMRKNTMGTQNSSLYSAGVQGNSSNYSTDNDNDNDNNNNNNNNSNIPVTAAACDDDDDDDDDAILIRQILLTYHDQEKPYELLQIQVKNWPDLGTLLNPISILQAINVKNHIIDTLFARNYYQNDQLPTILVHCSAGCGRTGTLCTIDSILSNFEMFEMLQKEFVKLKYPAKLFDPISWTINIFRKERISMVQNINQFIFIYDCLLFYFRLRLDDITERTDGDGSNKDNISLSALIEQIEKLEILQTFVDDKLKELPQ
- protein production: failed

Sequence: MAHIEKVPQRPGFSWRYRRIDEVEKEYDLHFHDDVFELVIHRHFTGSLHIGHHELEVTHNQMLLIAPGVPHSIHSTLVESKCETHVIWFKREWIANLMFYCAELRKLDPLLKAANKGVVFSERTAQHVVDLLHELMTFPAMEQLSRFLHVLSLIAHDEGAKTLMTHSYLSMSEHELQERERVASVNAYLEQHFATKVTLADLANYLSLSESAVTRLFQKHFKEPFSQRLMKLRINHAADLLQSTSLPIGIVFERVGYRNQALFNRHFKTYKGLTPRDYRQHYQQRIQP
- protein production: failed

Sequence: MTPATTTLVFTYGTLKRGFSNHVLMQDLIRSGDASFKGVYQTLDKYPLVCGPYRVPFLLNKPGSGYHVNGELYAVSPRGLSRLDELEGISRGHYIRQPIRLAAAEEEEEEEGDLETEAPSSCVVEAYYAHKSYEEELWRRNRGRSFGAYTENEARGYVKRNDRPQHLSFLDHIRIFVSSPCD
- protein production: failed

Sequence: MSNDTPFDALWQRMLARGWTPVSESRLDDWLTQAPDGVVLLSSDPKRTPEVSDNPVMIGELLHEFPDYTWQVAIADLEQSEAIGDRFGAFRFPATLVFTGGNYRGVLNGIHPWAELINLMRGLVEPQQERASLEHHHHHH
- protein production: not failed

Sequence: MNISPKAIKVRNIWIGGTEPCICAPVVGEDDRKVLREAEEVCRKQPDLLEWRADFFRAIDDQERVLATANGLRNIAGEIPILFTIRSEREGGQPIPLNEAEVRRLIEAICRSGAIDLVDYELAYGERIADVRRMTEECSVWLVVSRHYFDGTPRKETLLADMRQAERYGADIAKVAVMPKSPEDVLVLLQATEEARRELAIPLITMAMGGLGAITRLAGWLFGSAVTFAVGNQSSAPGQIPIDDVRTVLSILQTYSR
- protein production: not failed

Sequence: MPRCIIYVDFPCWHPVRQRPLRVRGRFRTFVRSHAFPSPPVSDPSPSSSDASPPDALVIIPTYNEADNIGPVIDQVLEQSPPLSVLVVDDNSTDGTADLVRSKKTDALDRVHLIERSGKLGLGTAYLRGFRYALAQDYTYICEMDADRSHDPNDLPRLIAPVREGEVALAIGSRYVEGVRVINWPLSRLVLSYGAGVYTRAITRLPLLDVTAGFKCFHRRVLETLPLDRVNSDGYAFQVEMHYRTWRAGFPFTEVPVVFTERTEGESKMRREIVVEAALKVWELRLQDLLGRL
- protein production: failed

Sequence: MKILVIGAGPAGLVFASQLKQARPLWAIDIVEKNDEQEVLGWGVVLPGRPGQHPANPLSYLDAPERLNPQFLEDFKLVHHNEPSLMSTGVLLCGVERRGLVHALRDKCRSQGIAIRFESPLLEHGELPLADYDLVVLANGVNHKTAHFTEALVPQVDYGRNKYIWYGTSQLFDQMNLVFRTHGKDIFIAHAYKYSDTMSTFIVECSEETYARARLGEMSEEASAEYVAKVFQAELGGHGLVSQPGLGWRNFMTLSHDRCHDGKLVLLGDALQSGHFSIGHGTTMAVVVAQLLVKALCTEDGVPAALKRFEERALPLVQLFRGHADNSRVWFETVEERMHLSSAEFVQSFDARRKSLPPMPEALAQNLRYALQRLEHHHHHH
- protein production: not failed
